± gives the standard error. Variants at the floor of the assay were thinned out.
B1: glmS ribozyme (parent)
chain: AUAAAAGCGCCAGAACUACAGAAAUGUAGUUGACGAGGAGGAGGUUUAUCGAAUUUUCGGCGGAUGCCUCCAAA

What was measured:
Conditions in all cases: with glucosamine-6-phosphate
glucosamine-6-phosphate [1] = variants of: B1; test: self-cleavage kobs at 640 uM GlcN6P; higher = faster cleavage; RNA array
Summary of the method: (§1)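 Barcoded glmS ribozyme variants on sequenced MiSeq chips were transcribed in situ by E. coli RNA polymerase and tracked through a hybridised Cy3 probe at 37 °C. Glucosamine-6-phosphate (40 μM to 10 mM) in HEPES/KCl/Mg(OAc)2 buffer was flowed in, and tiles were imaged over ~14 h. Signals were normalised to baseline and to non-cleaving reference variants; per-tile medians were fit to one- or two-exponential decays to give kobs. kcat and KM came from weighted Michaelis–Menten fits across concentrations.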

glucosamine-6-phosphate [2] = variants of: B1; test: self-cleavage kobs at 2500 uM GlcN6P; higher = faster cleavage; RNA array
Summary of the method: as §1

glucosamine-6-phosphate [3] = variants of: B1; test: self-cleavage kobs at 10000 uM GlcN6P; higher = faster cleavage; RNA array
Summary of the method: as §1

## AUAAAGGGGCGAUAACUACAGAAAUGUAGUUGACGAGGAGGAGGUUUAUGGAAUUUUCGGAGGAUGCCUCUAAA [A6G C8G C11G G13U C50G C61A C71U]
glucosamine-6-phosphate [1]
  self-cleavage kobs at 640 uM GlcN6P: 0.00556 ± 0.0017 s⁻¹
glucosamine-6-phosphate [2]
  self-cleavage kobs at 2500 uM GlcN6P: 0.000121 ± 5.1e-05 s⁻¹

## AUAAAAGCGCCAGAACUACAGAAAUGUAGUUGACGAGGAGGAGGUCUAUCCAAUUUUCGGCGGAUGCCUUCAAA [U46C G51C C70U]
glucosamine-6-phosphate [1]
  self-cleavage kobs at 640 uM GlcN6P: < 1e-05 s⁻¹
glucosamine-6-phosphate [2]
  self-cleavage kobs at 2500 uM GlcN6P: < 1e-05 s⁻¹

## AUAAAAUCGCCAGAACUACAGAAAUGUAGUUGACGAGAAGGAGUUUUAUCGAAUUUUCGGCGGAUGCCUCCAAA [G7U G38A G44U]
glucosamine-6-phosphate [1]
  self-cleavage kobs at 640 uM GlcN6P: < 1e-05 s⁻¹

## AUAAAACCGCCAGAACUACAGAAAUGUAGUUGACGAGGAGGAGGUUUAUCGAAUUUUCCGCGGAUCCCUCCAAA [G7C G59C G66C]
glucosamine-6-phosphate [1]
  self-cleavage kobs at 640 uM GlcN6P: < 1e-05 s⁻¹
glucosamine-6-phosphate [3]
  self-cleavage kobs at 10000 uM GlcN6P: < 1e-05 s⁻¹

## AUAAAAGCGCCAGAACUACAGAAAUGUAGUUGACGAGGAGGUGUUUUAUCGAAUUUUCGGGGGAUGCCUCCAAA [A42U G44U C61G]
glucosamine-6-phosphate [1]
  self-cleavage kobs at 640 uM GlcN6P: < 1e-05 s⁻¹
glucosamine-6-phosphate [2]
  self-cleavage kobs at 2500 uM GlcN6P: < 1e-05 s⁻¹

## AUAAAAGCGCGAGAACUACAGAAAUGUAGUUGACGAGGAGGAGGUUUAUCGAAUUUUCGUCGGUUGCCUCCAAA [C11G G60U A64U]
glucosamine-6-phosphate [1]
  self-cleavage kobs at 640 uM GlcN6P: < 1e-05 s⁻¹
glucosamine-6-phosphate [2]
  self-cleavage kobs at 2500 uM GlcN6P: < 1e-05 s⁻¹

## AUAAAAGCGCCAGAACUACAGAAAUGUAGUUGUCGAGGAGGAGUUGUAUCGAAUUUUCGGCGGAUGCCUCCAAA [A33U G44U U46G]
glucosamine-6-phosphate [1]
  self-cleavage kobs at 640 uM GlcN6P: < 1e-05 s⁻¹
glucosamine-6-phosphate [2]
  self-cleavage kobs at 2500 uM GlcN6P: < 1e-05 s⁻¹

## AUAAAAGCGCCAGAACUACAGAAAUGUAGUUGACGAGGAGGAGGGUUAUCGAAUUUUCGACGGAUGGCUCCAAA [U45G G60A C67G]
glucosamine-6-phosphate [1]
  self-cleavage kobs at 640 uM GlcN6P: < 1e-05 s⁻¹
glucosamine-6-phosphate [2]
  self-cleavage kobs at 2500 uM GlcN6P: < 1e-05 s⁻¹

## AUAAAAGCGUCAAAACUACAGAAAUGUAAUUGACGAGGAGAAGGUUUAUCGAAUUUUCGGCGGAUGCCUCCAAA [C10U G13A G29A G41A]
glucosamine-6-phosphate [1]
  self-cleavage kobs at 640 uM GlcN6P: < 1e-05 s⁻¹

## AUAAAAGCGCGAGAACUACAGAAAUGUACUUGACGAGGAGGAGGUUUAUCGAAUUUUCCGCGGAUGCCUCCAAA [C11G G29C G59C]
glucosamine-6-phosphate [1]
  self-cleavage kobs at 640 uM GlcN6P: < 1e-05 s⁻¹

## AUAAAAGCGCUAGAAUUACAGAAAUGUAGUUGACGAGGAGGAGGUUUAUCGAAUUUUCGGCGGAUGCCUCGAAA [C11U C16U C71G]
glucosamine-6-phosphate [1]
  self-cleavage kobs at 640 uM GlcN6P: 6.83e-05 ± 1.8e-05 s⁻¹
glucosamine-6-phosphate [2]
  self-cleavage kobs at 2500 uM GlcN6P: 0.000127 ± 3.7e-05 s⁻¹

## AUAAAAGCGCCAGAACUACAGAAAUGUAGUUGACGAGGAGGAAGUGUAUCGAAUUUUCGGCGGAUGCCUGCAAA [G43A U46G C70G]
glucosamine-6-phosphate [1]
  self-cleavage kobs at 640 uM GlcN6P: < 1e-05 s⁻¹
glucosamine-6-phosphate [2]
  self-cleavage kobs at 2500 uM GlcN6P: < 1e-05 s⁻¹

## AUAAAAGUGCCAGAGUUACAGAAAUGUAGUUGACGAGGAGGAGGUUUAUCGAAUCUUCGGCGGAUGCCUCCAAA [C8U A15G C16U U55C]
glucosamine-6-phosphate [1]
  self-cleavage kobs at 640 uM GlcN6P: < 1e-05 s⁻¹

## AUAAAAGCGCCAGAACUACAGAAAUGUAGUUAACUAGCCGGAGGUUUAGCGAAUUUUCGGCGGAUGCCUCCAAA [G32A G35U G38C A39C U49G]
glucosamine-6-phosphate [1]
  self-cleavage kobs at 640 uM GlcN6P: < 1e-05 s⁻¹
glucosamine-6-phosphate [2]
  self-cleavage kobs at 2500 uM GlcN6P: < 1e-05 s⁻¹

## AUAAAAGCGCCAGAACUACAGAAAUGUAGUUUACGAGGAGGAGGUUUAUCGAAUUAUCGGCGGAUGCGUCCAAA [G32U U56A C68G]
glucosamine-6-phosphate [1]
  self-cleavage kobs at 640 uM GlcN6P: 0.000222 ± 9e-05 s⁻¹

## AUAAAAGCAUCAGAACUACAGAAAUGUAGUUGACGAGGAGGAGGUUUAUCGAAUUUUCGGCGGAUGCAUCCAAA [G9A C10U C68A]
glucosamine-6-phosphate [1]
  self-cleavage kobs at 640 uM GlcN6P: < 1e-05 s⁻¹

## AUAAAAGCGCCAGAACUACAGAAAUGUAGUUGCCGAAGAGCAGGUUUAUCGAAUUCUCGGCGGAUGCCUCCAAA [A33C G37A G41C U56C]
glucosamine-6-phosphate [1]
  self-cleavage kobs at 640 uM GlcN6P: < 1e-05 s⁻¹

## AUAAAAGAGCCAAAACUACAGAAAUGUAGUUGACGAUGAGGAGGUUUAUCGAAUUUUCCGCGGAUGCGUCCAAA [C8A G13A G37U G59C C68G]
glucosamine-6-phosphate [1]
  self-cleavage kobs at 640 uM GlcN6P: 0.000781 ± 0.00025 s⁻¹

## AUAAAAGCGCCAGAACUACAGAAAUGUAGUCGACCAGGAGGAGGUUUAUUGAAUUUUCGGCGGAUGCCUCCAAA [U31C G35C C50U]
glucosamine-6-phosphate [1]
  self-cleavage kobs at 640 uM GlcN6P: < 1e-05 s⁻¹
glucosamine-6-phosphate [2]
  self-cleavage kobs at 2500 uM GlcN6P: < 1e-05 s⁻¹

## AUAAAAGCGCCACAACUACAGAAAUGUAGUUGACGAGGAGGAGGUAUAUCGAAUUUUCGGCGGAUACCUACAAA [G13C U46A G66A C70A]
glucosamine-6-phosphate [1]
  self-cleavage kobs at 640 uM GlcN6P: < 1e-05 s⁻¹

## AUAAAAGCGUCAGAAUUACAGAAAUGUAGUUAACGAGGAGGAGGUUUAUGGAAUUUUCGGCGGAUGCCUCCAAA [C10U C16U G32A C50G]
glucosamine-6-phosphate [1]
  self-cleavage kobs at 640 uM GlcN6P: 0.000327 ± 0.00015 s⁻¹
glucosamine-6-phosphate [2]
  self-cleavage kobs at 2500 uM GlcN6P: 9.98e-05 ± 3.8e-05 s⁻¹

## AUAAAAGCGCAAGAACUACAGAAAUGUAGUUGACGAGGAGGAGGUUUAUCGAAUGUUCGGGCGAUGCCUCCAAA [C11A U55G C61G G62C]
glucosamine-6-phosphate [1]
  self-cleavage kobs at 640 uM GlcN6P: < 1e-05 s⁻¹

## AUAAAAGCGCCAGAACUACAGAAAUGUAGCUGACGAGGAGGAGGUUUAUCAAAUUUUCGGCGGAGGCCUCCAAA [U30C G51A U65G]
glucosamine-6-phosphate [1]
  self-cleavage kobs at 640 uM GlcN6P: < 1e-05 s⁻¹
glucosamine-6-phosphate [2]
  self-cleavage kobs at 2500 uM GlcN6P: < 1e-05 s⁻¹

## AUAAAAGUGCCAGAACUACAGAAAUGUAGUUGACGAGGAGGAGGUUUAUCGAAUUUUCGGCGUAUGCUUCCAAA [C8U G63U C68U]
glucosamine-6-phosphate [1]
  self-cleavage kobs at 640 uM GlcN6P: < 1e-05 s⁻¹

Source: the supplement of paper PMC7125110
